This note sets out measurements from patent US20260042834A1 (HBM ALPHA THERAPEUTICS, published 2026).

Changes are numbered by the printed parent chain.

First the molecules themselves.
T1: corticotropin-releasing hormone (CRH) peptide (human and mouse (same sequence), not fully specified)
T1 peptide: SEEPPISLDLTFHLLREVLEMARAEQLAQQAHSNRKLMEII

B1: PR302341-1 (antibody, human IgG1, kappa, V domains shown)
VH: EVQLQQSGPELVKPGASVKMSCKASGYTFTDYFMKWVKQSHGESLEWIGVINPNNGDIFYNQKFKGKATLTVDKSSSTAFMQLNSLTSEDSAVYSCARGTDRALFAYWGQGTLVAVSA
VL: DVVMTQSPLSLPVTLGQPASISCRSGQSIVHSDGNTYLEWFQQRPGQSPRRLIYKVSNRFSGVPDRFSGSGSGTDFTLKISRVEAEDVGVYYCFQGSHIPWTFGGGTKVEIKR
B2: PR302341-3 (antibody, human IgG1, kappa, V domains shown)
VH: B1 VH
VL: B1 VL with V2I, S7T, L11S, F41L, S48P, R51L, S72A
B3: PR302341-6 (antibody, human IgG1, kappa, V domains shown)
VH: B1 VH
VL: B1 VL with S7T, P12S, L15P, F41Y, Q42L, R44K, R50Q, R51L, V88L
B4: PR302341-21 (antibody, human IgG1, kappa, V domains shown)
VH: QVQLVQSGAEVKKPGASVKVSCKASGYTFTDYFMKWVRQAPGQRLEWMGVINPNNGDIFYNQKFKGRVTITVDKSASTAYMELSSLRSEDTAVYYCARGTDRALFAYWGQGTLVTVSS
VL: B1 VL with F41Y, R51L, V88L
B5: PR302341-11 (antibody, human IgG1, kappa, V domains shown)
VH: B4 VH with R44G, I70M, A76T
VL: B1 VL with V2I, S7T, P12S, L15P, F41Y, Q42L, R44K, R50Q, R51L
B6: PR302341-19 (antibody, human IgG1, kappa, V domains shown)
VH: B4 VH with R44G, I70M, V72R, K74T, A76T, A79V
VL: B1 VL with F41Y, R51L, V88L
B7: PR302341-4 (antibody, human IgG1, kappa, V domains shown)
VH: B1 VH
VL: B1 VL with S7T, L11S, F41Y, S48P, R51L, S72A, V88L
B8: PR302341-12 (antibody, human IgG1, kappa, V domains shown)
VH: B4 VH with R44G, I70M, A76T
VL: B1 VL with S7T, P12S, L15P, F41Y, Q42L, R44K, R50Q, R51L, V88L
B9: PR302341-2 (antibody, human IgG1, kappa, V domains shown)
VH: B1 VH
VL: B1 VL with F41Y, R51L, V88L
B10: PR302341-9 (antibody, human IgG1, kappa, V domains shown)
VH: B4 VH with R44G, I70M, A76T
VL: B1 VL with V2I, S7T, L11S, F41L, S48P, R51L, S72A
B11: PR302341-8 (antibody, human IgG1, kappa, V domains shown)
VH: B4 VH with R44G, I70M, A76T
VL: B1 VL with F41Y, R51L, V88L
B12: PR302341-7 (antibody, human IgG1, kappa, V domains shown)
VH: B4 VH with R44G, I70M, A76T
VL: B1 VL
B13: PR302341-5 (antibody, human IgG1, kappa, V domains shown)
VH: B1 VH
VL: B1 VL with V2I, S7T, P12S, L15P, F41Y, Q42L, R44K, R50Q, R51L
B14: PR302341-13 (antibody, human IgG1, kappa, V domains shown)
VH: B4 VH with R44G, I70M, V72R, K74T, A76T, A79V
VL: DVLMTQTPLSLPVSLGDQASISCRSGQSIVHSDGNTYLEWYLQRPGQSPRLLIYKVSNRFSGVPDRFSGSGSGTDFTLKISRVGAEDLGIYYCFQGSHIPWTFGGGTKLEVKR
B15: PR302341-15 (antibody, human IgG1, kappa, V domains shown)
VH: B4 VH with V72R, K74T
VL: B14 VL
B16: PR302341-17 (antibody, human IgG1, kappa, V domains shown)
VH: B4 VH with R44G, I70M, V72R, K74T, A76I, S85R, E89D
VL: B14 VL
B17: PR302341-16 (antibody, human IgG1, kappa, V domains shown)
VH: B4 VH
VL: B14 VL
B18: PR302341-14 (antibody, human IgG1, kappa, V domains shown)
VH: B4 VH with R44G, I70M, A76T
VL: B14 VL
B19: PR302341-18 (antibody, human IgG1, kappa, V domains shown)
VH: B4 VH with R44G, I70M, A76I, S85R, E89D
VL: B14 VL
B20: PR302341-34 (antibody, human IgG1, kappa, V domains shown)
VH: B4 VH with R44G, N55Q, I70M, A76I, S85R, E89D
VL: B1 VL with G34A, F41Y, R51L, V88L
B21: PR302341-39 (antibody, human IgG1, kappa, V domains shown)
VH: B4 VH with R44G, G56A, I70M, A76I, S85R, E89D
VL: B1 VL with D33S, F41Y, R51L, V88L
B22: PR302341-66 (antibody, human IgG1, kappa, V domains shown)
VH: B4 VH with N55Q, V72R, K74T
VL: B1 VL with D33S, F41Y, R51L, V88L
B23: PR302341-38 (antibody, human IgG1, kappa, V domains shown)
VH: B4 VH with R44G, N55Q, I70M, A76I, S85R, E89D
VL: B1 VL with D33S, F41Y, R51L, V88L
B24: PR302341-40 (antibody, human IgG1, kappa, V domains shown)
VH: B4 VH with R44G, N55S, I70M, A76I, S85R, E89D
VL: B1 VL with D33S, F41Y, R51L, V88L
B25: PR302341-30 (antibody, human IgG1, kappa, V domains shown)
VH: B4 VH with R44G, I70M, A76I, S85R, E89D
VL: B1 VL with D33E, F41Y, R51L, V88L
B26: PR302341-31 (antibody, human IgG1, kappa, V domains shown)
VH: B4 VH with R44G, I70M, A76I, S85R, E89D
VL: B1 VL with G34A, F41Y, R51L, V88L
B27: PR302341-37 (antibody, human IgG1, kappa, V domains shown)
VH: B4 VH with R44G, N55S, I70M, A76I, S85R, E89D
VL: B1 VL with G34A, F41Y, R51L, V88L
B28: PR302341-36 (antibody, human IgG1, kappa, V domains shown)
VH: B4 VH with R44G, N55S, I70M, A76I, S85R, E89D
VL: B1 VL with D33E, F41Y, R51L, V88L
B29: PR302341-29 (antibody, human IgG1, kappa, V domains shown)
VH: B4 VH with R44G, G56A, I70M, A76I, S85R, E89D
VL: B1 VL with F41Y, R51L, V88L
B30: PR302341-42 (antibody, human IgG1, kappa, V domains shown)
VH: B4 VH with R44G, I70M, A76I, S85R, E89D
VL: B1 VL with D33S, F41Y, R51L, V88L
B31: PR302341-35 (antibody, human IgG1, kappa, V domains shown)
VH: B4 VH with R44G, G56A, I70M, A76I, S85R, E89D
VL: B1 VL with D33E, F41Y, R51L, V88L
B32: PR302341-71 (antibody, human IgG1, kappa, V domains shown)
VH: B4 VH with V72R, K74T
VL: B1 VL with D33E, F41Y, R51L, V88L
B33: PR302341-32 (antibody, human IgG1, kappa, V domains shown)
VH: B4 VH with R44G, N55Q, I70M, A76I, S85R, E89D
VL: B1 VL with D33E, F41Y, R51L, V88L
B34: PR302341-28 (antibody, human IgG1, kappa, V domains shown)
VH: B4 VH with R44G, N55Q, I70M, A76I, S85R, E89D
VL: B1 VL with F41Y, R51L, V88L
B35: PR302341-70 (antibody, human IgG1, kappa, V domains shown)
VH: B4 VH with V72R, K74T
VL: B1 VL with G34A, F41Y, R51L, V88L
B36: PR302341-41 (antibody, human IgG1, kappa, V domains shown)
VH: B4 VH with R44G, N55S, I70M, A76I, S85R, E89D
VL: B1 VL with F41Y, R51L, V88L
B37: PR302341-33 (antibody, human IgG1, kappa, V domains shown)
VH: B4 VH with R44G, G56A, I70M, A76I, S85R, E89D
VL: B1 VL with G34A, F41Y, R51L, V88L
B38: PR302341-72 (antibody, human IgG1, kappa, V domains shown)
VH: B4 VH with V72R, K74T
VL: B1 VL with D33S, F41Y, R51L, V88L
B39: PR302341-65 (antibody, human IgG1, kappa, V domains shown)
VH: B4 VH with N55S, V72R, K74T
VL: B1 VL with D33S, F41Y, R51L, V88L

In the first experiment the target is T1, corticotropin-releasing hormone (CRH) …. Nature of the experiment: cell-based or functional assay.
For B1, the “hCRHR1 Luciferase Reporter Assay IC50” value was 0.397 nM.

In the case of B2, the “hCRHR1 Luciferase Reporter Assay IC50” value was 0.128 nM.

For the molecule B3, the “hCRHR1 Luciferase Reporter Assay IC50” value turned out to be 0.363 nM.

B4: the “hCRHR1 Luciferase Reporter Assay IC50” value amounted to 0.177 nM and the “mCrhr1 Luciferase Reporter Assay IC50” value was determined as 0.541 nM.

Turning to B5, the “hCRHR1 Luciferase Reporter Assay IC50” value came out at 0.467 nM.

Turning to B6, the “hCRHR1 Luciferase Reporter Assay IC50” value came out at 0.121 nM and the “mCrhr1 Luciferase Reporter Assay IC50” value turned out to be 0.365 nM.

On to B7, for which the “hCRHR1 Luciferase Reporter Assay IC50” value was 0.107 nM.

In the case of B8, the “hCRHR1 Luciferase Reporter Assay IC50” value was found to be 0.25 nM.

As to B9, the “hCRHR1 Luciferase Reporter Assay IC50” value is 0.168 nM.

B10: the “hCRHR1 Luciferase Reporter Assay IC50” value came to 0.234 nM.

Take B11: the “hCRHR1 Luciferase Reporter Assay IC50” value turned out to be 0.165 nM and the “mCrhr1 Luciferase Reporter Assay IC50” value was found to be 0.357 nM.

On to B12, for which the “hCRHR1 Luciferase Reporter Assay IC50” value came out at 0.23 nM.

As for B13, the “hCRHR1 Luciferase Reporter Assay IC50” value is 0.73 nM.

As for B14, the “hCRHR1 Luciferase Reporter Assay IC50” value came out at 0.124 nM.

Turning to B15, the “hCRHR1 Luciferase Reporter Assay IC50” value worked out at 0.124 nM.

In the case of B16, the “hCRHR1 Luciferase Reporter Assay IC50” value worked out at 0.104 nM.

Turning to B17, the “hCRHR1 Luciferase Reporter Assay IC50” value was 0.225 nM.

Consider B18, for which the “hCRHR1 Luciferase Reporter Assay IC50” value was 0.075 nM.

Consider B19, for which the “hCRHR1 Luciferase Reporter Assay IC50” value is 0.169 nM.

A further experiment has the same target. Nature of the experiment: cell-based or functional assay. This is another data set of the same source.
B20: the “hCRHR1 Luciferase Reporter Assay IC50” value was 0.616 nM and the “mCrhr1 Luciferase Reporter Assay IC50” value was 2.19 nM.

For B21, the “hCRHR1 Luciferase Reporter Assay IC50” value is 1.04 nM.

Consider B22, for which the “hCRHR1 Luciferase Reporter Assay IC50” value was determined as 4.13 nM.

As to B23, the “hCRHR1 Luciferase Reporter Assay IC50” value worked out at 1.78 nM.

B24: the “hCRHR1 Luciferase Reporter Assay IC50” value is 1.82 nM.

Regarding B25, the “hCRHR1 Luciferase Reporter Assay IC50” value was 0.457 nM.

Take B26: the “hCRHR1 Luciferase Reporter Assay IC50” value turned out to be 0.498 nM.

In the case of B27, the “hCRHR1 Luciferase Reporter Assay IC50” value stood at 0.792 nM and the “mCrhr1 Luciferase Reporter Assay IC50” value worked out at 1.29 nM.

On to B28, for which the “hCRHR1 Luciferase Reporter Assay IC50” value was found to be 1.77 nM.

For the molecule B29, the “hCRHR1 Luciferase Reporter Assay IC50” value was determined as 0.427 nM and the “mCrhr1 Luciferase Reporter Assay IC50” value is 1.39 nM.

For the molecule B30, the “hCRHR1 Luciferase Reporter Assay IC50” value turned out to be 1.98 nM.

As for B31, the “hCRHR1 Luciferase Reporter Assay IC50” value was 1.75 nM.

For the molecule B32, the “hCRHR1 Luciferase Reporter Assay IC50” value is 2.01 nM.

On to B33, for which the “hCRHR1 Luciferase Reporter Assay IC50” value stood at 1.89 nM.

In the case of B34, the “hCRHR1 Luciferase Reporter Assay IC50” value worked out at 0.267 nM and the “mCrhr1 Luciferase Reporter Assay IC50” value turned out to be 2.43 nM.

As to B35, the “hCRHR1 Luciferase Reporter Assay IC50” value is 1.6 nM.

Regarding B36, the “hCRHR1 Luciferase Reporter Assay IC50” value worked out at 0.471 nM.

For B37, the “hCRHR1 Luciferase Reporter Assay IC50” value worked out at 0.821 nM and the “mCrhr1 Luciferase Reporter Assay IC50” value came to 1.66 nM.

Turning to B38, the “hCRHR1 Luciferase Reporter Assay IC50” value was found to be 1.73 nM.

For the molecule B39, the “hCRHR1 Luciferase Reporter Assay IC50” value turned out to be 3.12 nM.
